From patent US20190127444A1 (NEW YORK UNIVERSITY, published 2019)

T1: LukAB toxoid variant (LukA E323A), recombinant polyhistidine-tagged (S. aureus, UniProt Q2FFA2 28-351; P21224 30-338)
T1 sequence 1: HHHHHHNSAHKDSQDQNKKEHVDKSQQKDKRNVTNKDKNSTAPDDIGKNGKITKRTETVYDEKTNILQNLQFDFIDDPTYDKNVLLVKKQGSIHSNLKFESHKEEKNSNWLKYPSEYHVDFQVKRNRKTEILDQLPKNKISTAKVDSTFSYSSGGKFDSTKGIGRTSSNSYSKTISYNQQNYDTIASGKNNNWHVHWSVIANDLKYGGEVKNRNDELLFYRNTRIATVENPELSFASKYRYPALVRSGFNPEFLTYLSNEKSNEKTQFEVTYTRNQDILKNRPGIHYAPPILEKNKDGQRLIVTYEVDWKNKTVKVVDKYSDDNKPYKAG
T1 sequence 2: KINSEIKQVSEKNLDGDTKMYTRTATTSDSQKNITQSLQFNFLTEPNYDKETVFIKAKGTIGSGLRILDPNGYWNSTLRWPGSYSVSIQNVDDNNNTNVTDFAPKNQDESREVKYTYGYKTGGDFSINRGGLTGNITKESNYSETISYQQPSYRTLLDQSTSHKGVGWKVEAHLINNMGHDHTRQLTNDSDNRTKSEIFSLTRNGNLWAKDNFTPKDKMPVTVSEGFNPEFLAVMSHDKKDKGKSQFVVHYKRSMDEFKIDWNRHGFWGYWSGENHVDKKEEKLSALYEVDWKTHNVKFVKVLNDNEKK

B1: Luk17-His-SA (designed binder)
chain: MLPAPKNLVVSRVTEDSARLSWTAPDAAFDSFWITYEEKFYRGEAIVLTVPGSERSYDLTGLKPGTEYKVWIVGVKGGQGSWPLSAIFTTGGHHHHHHGGGLNDIFEAQKIEWHE
B2: mAb 5133 PRASA A6 HC-L4-AB (Table 1 Construct 6) (bispecific antibody)
heavy: EVQLVETGGGLVKPGGSLRLSCSASRFSFRDYYMTWIRQAPGKGPEWVSHISGSGSTIYYADSVRGRFTISRDNAKSSLYLQMDSLQADDTAVYYCARGGRATSYYWVHWGPGTLVTVSSASTKGPSVFPLAPSSKSTSGGTAALGCLVKDYFPEPVTVSWNSGALTSGVHTFPAVLQSSGLYSLSSVVTVPSSSLGTQTYICNVNHKPSNTKVDKKVEPKSCDKTHTCPPCPAPPVAGPDVFLFPPKPKDTLMISRTPEVTCVVVDVSHEDPEVKFNWYVDGVEVHNAKTKPREEQYNSTYRVVSVLTVLHQDWLNGKEYKCKVSNAALPAPIAKTISKAKGQPREPQVYTLPPSRDELTKNQVSLTCLVKGFYPSDIAVEWESNGQPENNYKTTPPVLDSDGSFFLYSKLTVDKSRWQQGNVFSCSVMHEALHNRFTQKSLSLSPGKGGGGSGGGGSGGGGSGGGGSMLPAPKNLVVSRVTEDSARLSWTAPDAAFDSFWITYEEKFYRGEAIVLTVPGSERSYDLTGLKPGTEYKVWIVGVKGGQGSWPLSAIFTT
light: EIVLTQSPATLSLSPGERATLSCRASQSVSGYLGWYQQKPGQAPRLLIYGASSRATGIPDRFSGSGSGTDFTLTISRLEPEDFAVYYCQQYGSSPLTFGGGTKLEIKRTVAAPSVFIFPPSDEQLKSGTASVVCLLNNFYPREAKVQWKVDNALQSGNSQESVTEQDSKDSTYSLSSTLTLSKADYEKHKVYACEVTHQGLSSPVTKSFNRGEC
notes: also called CR5133 PRASA A6 HC-L4-AB
B3: 3×4 linker variant of Construct 11 (bispecific antibody)
heavy: EVQLVETGGGLVKPGGSLRLSCSASRFSFRDYYMTWIRQAPGKGPEWVSHISGSGSTIYYADSVRGRFTISRDNAKSSLYLQMDSLQADDTAVYYCARGGRATSYYWVHWGPGTLVTVSSASTKGPSVFPLAPSSKSTSGGTAALGCLVKDYFPEPVTVSWNSGALTSGVHTFPAVLQSSGLYSLSSVVTVPSSSLGTQTYICNVNHKPSNTKVDKKVEPKSCDKTHTCPPCPAPPVAGPDVFLFPPKPKDTLMISRTPEVTCVVVDVSHEDPEVKFNWYVDGVEVHNAKTKPREEQYNSTYRVVSVLTVLHQDWLNGKEYKCKVSNAALPAPIAKTISKAKGQPREPQVYTLPPSRDELTKNQVSLTCLVKGFYPSDIAVEWESNGQPENNYKTTPPVLDSDGSFFLYSKLTVDKSRWQQGNVFSCSVMHEALHNRFTQKSLSLSPGKGGGGSGGGGSGGGGSMLPAPKNLVVSRVTEDSARLSWTAPDAAFDSFHIEYAEPWVWGEAIVLTVPGSERSYDLTGLKPGTEYVVFIGGVKGGHNSTPLSAIFTTGGGGSGGGGSGGGGSGGGGSMLPAPKNLVVSRVTEDSARLSWTAPDAAFDSFWITYEEKFYRGEAIVLTVPGSERSYDLTGLKPGTEYKVWIVGVKGGQGSWPLSAIFTT
light: B2 light
B4: Luk967 Hla binding FN3 domain, polyhistidine-tagged version (designed binder)
chain: LPAPKNLVVSRVTEDSARLSWEANAWDDVNFDSFLIQYQESEKVGEAIVLTVPGSERSYDLTGLKPGTEYTVSIYGVWNQTHYRWPSNPLSAIFTT
B5: Luk969 Hla binding FN3 domain, polyhistidine-tagged version (designed binder)
chain: LPAPKNLVVSRVTEDSARLSWNSEIAEQFFFDSFLIQYQESEKVGEAIVLTVPGSERSYDLTGLKPGTEYTVSIYGVWGHWDWYWKTSNPLSAIFTT
B6: Luk982 Hla binding FN3 domain, polyhistidine-tagged version (designed binder)
chain: LPAPKNLVVSRVTEDSARLSWTAPDAAFDSFAIGYPEYHDAGEAIHLFVPGSERSYDLTGLKPGTEYVVAIRGVKGGHASEPLHAHFTT
B7: Luk1012 Hla binding FN3 domain, polyhistidine-tagged version (designed binder)
chain: LPAPKNLVVSRVTEDSARLSWTAPDAAFDSFFILYVEYSVNGEAIELSVPGSERSYDLTGLKPGTEYDVIIGGVKGGNHSKPLVAFFTT
B8: Luk970 Hla binding FN3 domain, polyhistidine-tagged version (designed binder)
chain: LPAPKNLVVSRVTEDSARLSWNRGLIPFDSFLIQYQESEKVGEAIVLTVPGSERSYDLTGLKLGTEYTVSIYGVGTYYPWWPLSNPLSAIFTT
B9: mAb 5133 PRASA A6 (CR5133 PRASA A6; Table 1 Construct 4) (antibody)
heavy: EVQLVETGGGLVKPGGSLRLSCSASRFSFRDYYMTWIRQAPGKGPEWVSHISGSGSTIYYADSVRGRFTISRDNAKSSLYLQMDSLQADDTAVYYCARGGRATSYYWVHWGPGTLVTVSSASTKGPSVFPLAPSSKSTSGGTAALGCLVKDYFPEPVTVSWNSGALTSGVHTFPAVLQSSGLYSLSSVVTVPSSSLGTQTYICNVNHKPSNTKVDKKVEPKSCDKTHTCPPCPAPPVAGPDVFLFPPKPKDTLMISRTPEVTCVVVDVSHEDPEVKFNWYVDGVEVHNAKTKPREEQYNSTYRVVSVLTVLHQDWLNGKEYKCKVSNAALPAPIAKTISKAKGQPREPQVYTLPPSRDELTKNQVSLTCLVKGFYPSDIAVEWESNGQPENNYKTTPPVLDSDGSFFLYSKLTVDKSRWQQGNVFSCSVMHEALHNRFTQKSLSLSPGK
light: B2 light
notes: no FN3 domains
B10: mAb 5133 PRASA A6 HC-L4-E (Table 1 Construct 15) (bispecific antibody)
heavy: EVQLVETGGGLVKPGGSLRLSCSASRFSFRDYYMTWIRQAPGKGPEWVSHISGSGSTIYYADSVRGRFTISRDNAKSSLYLQMDSLQADDTAVYYCARGGRATSYYWVHWGPGTLVTVSSASTKGPSVFPLAPSSKSTSGGTAALGCLVKDYFPEPVTVSWNSGALTSGVHTFPAVLQSSGLYSLSSVVTVPSSSLGTQTYICNVNHKPSNTKVDKKVEPKSCDKTHTCPPCPAPPVAGPDVFLFPPKPKDTLMISRTPEVTCVVVDVSHEDPEVKFNWYVDGVEVHNAKTKPREEQYNSTYRVVSVLTVLHQDWLNGKEYKCKVSNAALPAPIAKTISKAKGQPREPQVYTLPPSRDELTKNQVSLTCLVKGFYPSDIAVEWESNGQPENNYKTTPPVLDSDGSFFLYSKLTVDKSRWQQGNVFSCSVMHEALHNRFTQKSLSLSPGKGGGGSGGGGSGGGGSGGGGSMLPAPKNLVVSRVTEDSARLSWTAPDAAFDSFHIEYAEPWVWGEAIVLTVPGSERSYDLTGLKPGTEYVVFIGGVKGGHNSTPLSAIFTT
light: B2 light
notes: also called CR5133 PRASA A6 HC-L4-E

Assays:
[1] = target: T1, LukAB toxoid variant (LukA E323A), …; experiment: BLI, FN3 protein on streptavidin pins, LukAB toxoid at 10 ug/mL
[2] = target: T1, LukAB toxoid variant (LukA E323A), …; experiment: SPR (Biacore T200), single cycle kinetics, 1:1 model
[3] = target: T1, LukAB toxoid variant (LukA E323A), …; experiment: ELISA, biotinylated toxin on streptavidin plate
[4] = target: T2, Human serum albumin conjugated with biotin (Rockland 009-0633) (human, UniProt P02768 25-609); experiment: ELISA, biotinylated HSA on streptavidin plate
T2 construct: also called HSA
T2 sequence (P02768 25-609 limits assumed): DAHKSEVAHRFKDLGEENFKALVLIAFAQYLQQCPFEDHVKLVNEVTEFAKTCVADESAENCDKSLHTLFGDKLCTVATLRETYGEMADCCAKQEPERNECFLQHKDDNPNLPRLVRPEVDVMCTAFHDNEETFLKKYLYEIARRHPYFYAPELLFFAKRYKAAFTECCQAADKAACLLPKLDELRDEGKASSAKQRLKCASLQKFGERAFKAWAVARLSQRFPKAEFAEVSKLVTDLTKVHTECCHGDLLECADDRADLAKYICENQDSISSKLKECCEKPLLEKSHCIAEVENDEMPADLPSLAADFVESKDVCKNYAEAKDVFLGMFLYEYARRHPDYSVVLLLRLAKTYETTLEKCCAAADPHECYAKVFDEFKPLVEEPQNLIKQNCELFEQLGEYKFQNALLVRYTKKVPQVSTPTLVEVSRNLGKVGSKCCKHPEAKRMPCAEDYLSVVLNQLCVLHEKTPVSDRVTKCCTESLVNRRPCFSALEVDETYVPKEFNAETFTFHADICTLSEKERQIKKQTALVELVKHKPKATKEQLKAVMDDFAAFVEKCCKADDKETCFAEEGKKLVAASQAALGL

[5] = target: T1, LukAB toxoid variant (LukA E323A), …; experiment: SPR (Biacore T200), construct captured via anti-human Fc, LukAB as analyte

Row | Binder | binding result [4] | also measured
1 | B1 | – | binding result [1]: binds
2 | B2 | – | Kd [2]: 0.07 nM
3 | B3 | – | binding result [3]: binds
4 | B4 | no binding (tested: 1 µM) | –
5 | B5 | no binding (tested: 1 µM) | –
6 | B6 | no binding (tested: 1 µM) | –
7 | B7 | no binding (tested: 1 µM) | –
8 | B8 | no binding (tested: 1 µM) | –
9 | B9 | – | binding result [5]: no binding (tested: 100 nM)
10 | B10 | – | binding result [5]: no binding (tested: 100 nM)
